From patent US20260250651, “CAS12 PROTEINS AND USES THEREOF” (GUANGZHOU REFORGENE MEDICINE CO., LTD., published 2026)

T1: Cas12i-111 (N295R,N260R,G705R,L332R)
T1 chain: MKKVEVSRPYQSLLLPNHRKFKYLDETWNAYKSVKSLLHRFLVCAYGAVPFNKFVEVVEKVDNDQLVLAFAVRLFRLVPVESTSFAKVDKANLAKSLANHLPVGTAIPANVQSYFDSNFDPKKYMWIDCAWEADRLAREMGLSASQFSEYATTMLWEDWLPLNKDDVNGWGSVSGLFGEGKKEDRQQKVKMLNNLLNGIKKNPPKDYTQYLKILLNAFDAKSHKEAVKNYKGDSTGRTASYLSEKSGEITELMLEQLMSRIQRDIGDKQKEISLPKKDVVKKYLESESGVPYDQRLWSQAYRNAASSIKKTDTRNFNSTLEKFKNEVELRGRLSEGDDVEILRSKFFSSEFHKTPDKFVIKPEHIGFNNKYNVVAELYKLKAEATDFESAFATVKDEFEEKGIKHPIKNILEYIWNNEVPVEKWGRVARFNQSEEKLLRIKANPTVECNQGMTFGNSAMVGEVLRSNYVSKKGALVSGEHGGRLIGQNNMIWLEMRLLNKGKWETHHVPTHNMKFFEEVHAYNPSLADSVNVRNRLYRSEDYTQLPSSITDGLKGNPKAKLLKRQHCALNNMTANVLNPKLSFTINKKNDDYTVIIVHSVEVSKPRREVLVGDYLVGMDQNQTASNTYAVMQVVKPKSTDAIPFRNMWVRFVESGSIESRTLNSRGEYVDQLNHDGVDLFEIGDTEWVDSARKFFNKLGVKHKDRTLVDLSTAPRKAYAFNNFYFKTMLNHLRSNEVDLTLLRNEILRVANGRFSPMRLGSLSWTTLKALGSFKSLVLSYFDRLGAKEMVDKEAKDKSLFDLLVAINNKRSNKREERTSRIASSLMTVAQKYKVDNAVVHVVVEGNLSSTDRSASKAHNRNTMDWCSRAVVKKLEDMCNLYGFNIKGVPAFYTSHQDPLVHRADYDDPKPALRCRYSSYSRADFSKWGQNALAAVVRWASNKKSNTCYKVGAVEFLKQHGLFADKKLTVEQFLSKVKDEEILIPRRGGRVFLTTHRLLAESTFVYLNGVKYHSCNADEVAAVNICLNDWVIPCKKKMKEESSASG

T2: Cas12i-133 (N295R,N260R,G705R,Q971E)
T2 chain: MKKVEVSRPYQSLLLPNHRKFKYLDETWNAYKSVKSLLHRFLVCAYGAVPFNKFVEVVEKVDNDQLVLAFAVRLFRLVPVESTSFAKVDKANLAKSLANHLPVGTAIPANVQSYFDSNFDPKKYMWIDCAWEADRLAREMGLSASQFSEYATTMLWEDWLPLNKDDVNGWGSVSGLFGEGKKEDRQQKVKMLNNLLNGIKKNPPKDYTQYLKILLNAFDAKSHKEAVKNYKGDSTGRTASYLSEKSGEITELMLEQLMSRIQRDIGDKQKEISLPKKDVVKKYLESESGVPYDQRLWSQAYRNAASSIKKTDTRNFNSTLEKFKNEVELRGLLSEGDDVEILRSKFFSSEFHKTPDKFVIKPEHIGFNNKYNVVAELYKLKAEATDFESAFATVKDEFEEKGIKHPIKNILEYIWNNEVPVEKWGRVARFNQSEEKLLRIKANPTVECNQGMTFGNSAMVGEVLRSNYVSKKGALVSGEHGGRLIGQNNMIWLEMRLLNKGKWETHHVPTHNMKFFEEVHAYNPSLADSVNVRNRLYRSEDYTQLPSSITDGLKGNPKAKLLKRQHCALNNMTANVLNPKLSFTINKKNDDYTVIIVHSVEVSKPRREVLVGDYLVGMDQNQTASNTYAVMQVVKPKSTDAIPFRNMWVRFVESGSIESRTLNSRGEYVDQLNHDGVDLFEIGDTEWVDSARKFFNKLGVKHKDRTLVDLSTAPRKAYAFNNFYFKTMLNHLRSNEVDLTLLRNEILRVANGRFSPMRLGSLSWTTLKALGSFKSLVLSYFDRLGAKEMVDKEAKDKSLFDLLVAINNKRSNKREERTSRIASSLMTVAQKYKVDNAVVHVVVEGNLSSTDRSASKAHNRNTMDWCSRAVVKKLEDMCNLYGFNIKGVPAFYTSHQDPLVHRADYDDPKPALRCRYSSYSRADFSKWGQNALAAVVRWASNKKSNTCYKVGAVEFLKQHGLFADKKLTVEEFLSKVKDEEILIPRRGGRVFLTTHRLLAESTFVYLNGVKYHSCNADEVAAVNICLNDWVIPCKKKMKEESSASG


What was measured:
Cas12i-111 = molecular target: T1, Cas12i-111; test: cell_activity; 293T indels
Protocol: (§1) Plating: The 293T cell line was plated when the confluence reached 70-80%, and the number of cells seeded in a 24-well plate was 5*10\hat{ }5 cells/well.
(§2) Transfection: After 12-14 hours of plating, transfection was performed. 100 μl of Opti-MEM, 1.5 μl of PEI (Yisheng Bio, Polyethylenimine Linear (PEI) MW25000), 250 ng of the mutant clone plasmid from Example 2, and 250 ng of gRNA plasmid for targeting endogenous genes were added to each well of a 24-well plate. The mixture was incubated at room temperature for 20 minutes and then added to 293T cells for transfection. After transfection overnight, the medium was replaced with fresh medium and cultured for the next period.
(§3) DNA extraction, PCR amplification, and Sanger sequencing: After culturing for 72 hours, cells were washed with PBS, and then 100 μl of cell lysis buffer (Viagen, DirectPCR® Lysis Reagent (Cell)) was added for lysis to obtain a lysate containing genomic DNA. The genomic DNA was amplified in the region near the target sequence, and the PCR product was sent to a sequencing company for Sanger sequencing.

Cas12i-133 = molecular target: T2, Cas12i-133; test: cell_activity; 293T indels
Protocol: as §1, §2, §3

| Binder | relative indel editing efficiency (Cas12i-111) | relative indel editing efficiency (Cas12i-133) |
| --- | --- | --- |
| gRNA-HBG ; HBG target (ssRNA ; dsDNA) RNA: AGAGAAUGUGUGCAUAGUCACACACAAGGCAAACUUGACCAAU DNA 1: ACAAGGCAAACTTGACCAAT DNA 2: ATTGGTCAAGTTTGCCTTGT | 1.53 fold of wild type | 1.57 fold of wild type |
| gRNA-HBB ; HBB target (ssRNA ; dsDNA) RNA: AGAGAAUGUGUGCAUAGUCACACUAUGCAGAAAUAUUGCUAUUGCCU DNA 1: TATGCAGAAATATTGCTATTGCCT DNA 2: AGGCAATAGCAATATTTCTGCATA | 1.01 fold of Cas12i-69 | 0.78 fold of Cas12i-69 |
| gRNA-TTR ; TTR target (ssRNA ; dsDNA) RNA: AGAGAAUGUGUGCAUAGUCACACCAGUAAGAUUUGGUGUCUAU DNA 1: CAGTAAGATTTGGTGTCTAT DNA 2: ATAGACACCAAATCTTACTG | 3.91 fold of wild type | 4.95 fold of wild type |
